Test results taken from US20130089497A1 (Genentech, published 2013).

What was measured:
[1] = biological target: T1, gD tagged human FcRH2 on SVT2 cells (human, UniProt Q96LA5 20-508); assay: FACS, SVT2.MSCV.gD.FcRH2 cells, PE secondary antibody
T1 construct: whole, on cells; also called huFcRH2; not shown: gD tag; the construct for this FcRH is not described
T1 sequence (looked up): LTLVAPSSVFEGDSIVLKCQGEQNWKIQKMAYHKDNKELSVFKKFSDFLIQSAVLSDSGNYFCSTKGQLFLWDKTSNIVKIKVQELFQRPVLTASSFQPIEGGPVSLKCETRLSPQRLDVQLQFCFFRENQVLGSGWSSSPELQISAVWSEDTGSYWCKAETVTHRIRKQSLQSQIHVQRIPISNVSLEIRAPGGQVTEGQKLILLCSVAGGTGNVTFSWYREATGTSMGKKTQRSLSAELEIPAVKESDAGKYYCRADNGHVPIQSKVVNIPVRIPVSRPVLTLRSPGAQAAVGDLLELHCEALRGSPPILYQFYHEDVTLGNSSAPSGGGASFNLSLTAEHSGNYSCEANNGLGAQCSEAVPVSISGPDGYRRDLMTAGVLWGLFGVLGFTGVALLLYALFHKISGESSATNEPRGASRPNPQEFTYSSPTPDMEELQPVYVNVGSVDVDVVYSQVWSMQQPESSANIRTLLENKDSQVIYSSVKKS

[2] = biological target: T2, human FcRH5 (FcRH5c/IRTA2c, PRO52387), soluble recombinant protein (human, UniProt Q96RD9 16-851); assay: SPR (Biacore 2000): IgG captured on anti-murine IgG chip, FcRH injected, 25 C, 1:1 Langmuir model
T2 construct: also called Hu antigen; FcRH5 protein
T2 chain: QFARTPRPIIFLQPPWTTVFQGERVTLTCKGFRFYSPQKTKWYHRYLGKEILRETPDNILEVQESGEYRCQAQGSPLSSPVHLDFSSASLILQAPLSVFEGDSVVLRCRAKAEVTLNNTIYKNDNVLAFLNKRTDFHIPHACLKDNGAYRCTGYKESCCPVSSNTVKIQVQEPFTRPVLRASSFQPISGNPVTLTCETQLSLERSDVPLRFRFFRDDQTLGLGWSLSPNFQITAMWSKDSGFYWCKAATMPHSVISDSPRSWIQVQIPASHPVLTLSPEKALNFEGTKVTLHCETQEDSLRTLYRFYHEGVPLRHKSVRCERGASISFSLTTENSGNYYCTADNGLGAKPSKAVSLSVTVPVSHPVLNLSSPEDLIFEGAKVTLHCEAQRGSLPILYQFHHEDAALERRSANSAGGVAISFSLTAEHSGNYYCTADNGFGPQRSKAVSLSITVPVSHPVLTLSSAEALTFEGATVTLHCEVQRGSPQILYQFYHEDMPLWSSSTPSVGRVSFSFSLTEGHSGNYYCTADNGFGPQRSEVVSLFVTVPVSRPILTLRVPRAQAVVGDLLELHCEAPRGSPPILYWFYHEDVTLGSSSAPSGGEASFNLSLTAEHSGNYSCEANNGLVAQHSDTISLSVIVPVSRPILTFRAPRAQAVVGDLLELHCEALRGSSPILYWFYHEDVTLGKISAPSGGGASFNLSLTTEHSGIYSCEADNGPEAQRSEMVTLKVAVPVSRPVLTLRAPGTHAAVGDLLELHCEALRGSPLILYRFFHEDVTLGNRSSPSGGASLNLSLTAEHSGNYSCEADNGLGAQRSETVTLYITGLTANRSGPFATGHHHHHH

B1: murine monoclonal antibody anti-FcRH5-13G9 (antibody, V domains shown)
VH: EVQLVQSGPELKKPGETVKISCKASGYTFTNYGMNWVKQAPGKGLKWMGWVNTYTGEPTYTDDFKGRFAFSVETSASTVFLQINNLKNEDTATYFCARRSIPYYYAMDYWGQGTSLT
VL: DIVMTQSQKIMSTSVGDRVNVTCKASQNVGSNVAWYHQKPGQSPKALIYSASYRYSGVPDRFTGSGSGTDFTLTISNVQSEDLAEYFCQQYKTWTFGGGTKLEIKR
notes: Whole murine IgG from hybridoma; also called 13G9.1.1; mu13G9
- binding result [1]: no binding (tested: 1.0 ug per about 10^6 cells (p-1120))
- Kd [2]: 19 nM
